Reference: patent US20250289873A1 (BROADWING BIO, published 2025)

T1: human CFHL3-His (ATX-P-58) (human, UniProt Q02985 19-330)
T1 construct: also called human CFHR3 protein; CFHR3; not shown: C-terminal His tag (and linker)
T1 sequence (looked up): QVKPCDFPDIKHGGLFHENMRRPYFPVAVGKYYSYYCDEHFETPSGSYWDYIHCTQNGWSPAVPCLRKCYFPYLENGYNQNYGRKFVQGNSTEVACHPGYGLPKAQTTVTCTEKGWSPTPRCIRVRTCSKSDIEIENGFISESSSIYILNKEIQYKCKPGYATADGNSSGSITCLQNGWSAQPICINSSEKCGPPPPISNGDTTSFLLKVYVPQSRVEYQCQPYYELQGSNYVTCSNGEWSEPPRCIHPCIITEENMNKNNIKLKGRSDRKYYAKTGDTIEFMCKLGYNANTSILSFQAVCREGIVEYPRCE

T2: Human CFHL1-Y402H-His (ATX-P-421) (human)
T2 construct: also called human CFHL-1 (Y402H) protein
T2 chain: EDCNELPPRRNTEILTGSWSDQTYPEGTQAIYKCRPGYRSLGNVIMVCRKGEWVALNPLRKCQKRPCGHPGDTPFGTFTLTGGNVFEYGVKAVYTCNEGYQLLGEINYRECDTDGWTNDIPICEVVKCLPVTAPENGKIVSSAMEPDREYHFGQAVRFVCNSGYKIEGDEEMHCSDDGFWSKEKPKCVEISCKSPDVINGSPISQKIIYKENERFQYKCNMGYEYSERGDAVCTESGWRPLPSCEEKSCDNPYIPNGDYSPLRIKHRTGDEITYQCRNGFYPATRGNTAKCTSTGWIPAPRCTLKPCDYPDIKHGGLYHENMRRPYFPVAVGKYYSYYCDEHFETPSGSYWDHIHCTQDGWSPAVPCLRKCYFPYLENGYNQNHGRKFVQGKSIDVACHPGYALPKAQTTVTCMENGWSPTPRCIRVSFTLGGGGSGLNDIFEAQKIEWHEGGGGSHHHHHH


What was measured:
[1] = biological target: T1, human CFHL3-His (ATX-P-58); assay: Carterra LSA biosensor, mAb printed on chip, cutoff set by isotype control
Method: (§1) Experiments were also conducted to determine the reactivity of the CFHR4 antibodies with the human CFHR3 protein (FIG. 9). The binding experiments were performed on Carterra LSA with a running buffer of PBS pH 7.40, 1% BSA, 0.05% Tween20. Antibodies were covalently printed on an HC30M chip. Chip was activated with 33 mM s-NHS and 133 mM EDC in 100 mM MES pH 5.5 for 7 minutes. Antibodies at 10 mg/ml in acetic acid buffer pH 4.5 were used for printing for 10 min. The printed chip was then quenched with 1 M ethanolamine pH 8.5 for 7 min. For the reactivity assay, ATX-P-58, human CFHL3-His, at 550 nM was tested with 5 min association followed by 15 min dissociation. Results were processed and analyzed in Carterra LSA Kinetics Software. The data was referenced with the interstitial reference spots and double-referenced to a buffer cycle, and then the responses (nm) after association were reported. Isotype control was used to determine the cutoff response for positive binding.
as §1, with “CFHL-1 (Y402H)” for “CFHR3”, “10).” for “9).”, “ATX-P-421,” for “ATX-P-58,”, “CFHL1-Y402H-His,” for “CFHL3-His,”, “380” for “550”

[2] = biological target: T2, Human CFHL1-Y402H-His (ATX-P-421); assay: as above
Method: as §1
as §1, with “CFHL-1 (Y402H)” for “CFHR3”, “10).” for “9).”, “ATX-P-421,” for “ATX-P-58,”, “CFHL1-Y402H-His,” for “CFHL3-His,”, “380” for “550”

[3] = biological target: T2, Human CFHL1-Y402H-His (ATX-P-421); assay: Carterra LSA biosensor, mAb printed on chip, human CFHL1-Y402H-His at 380 nM
Method: as §1, with “CFHL-1 (Y402H)” for “CFHR3”, “10).” for “9).”, “ATX-P-421,” for “ATX-P-58,”, “CFHL1-Y402H-His,” for “CFHL3-His,”, “380” for “550”

binding result [1]	binding result [2]	binding result [3]	Binder
no binding (tested: 550 nM)		binds	ATX-P-591 (antibody, V domains shown) VH: QVQLVQSGAEVKKPGASVKVSCKASGYTFTSYGISWVRQAPGQGLEWMGWISAYNGNTNYAQKLQGRVTMTTDTSTSTAYMELRSLRSDDTAIYYCTRDLRGTAFDYWGQGTPVTVSS VL: DIQMTQSPSSLSASVGDRVTITCRASQSINTYLNWYQQKPGKAPKLLIYAASSLQSGVPSRFSGSGSGTDFTLTISSLQPEDFATYSCQHSFTTPFTFGPGTKLEIKR
no binding (tested: 550 nM)	no binding (tested: 380 nM)		ATX-P-607 (antibody, human IgG1, kappa, N297A, V domains shown) VH: QVQLVQSGAEVKKPGASVKVSCKASGYTFTSYYMHWVRQAPGQGLEWMGIINPSGGSTSYAQKFQGRVTMTRDTSTNTVYMELSSLRSEDTAVYYCARDPEYSSAFDIWGQGTMVTVSS VL: DIQMTQSPSSLSASVGDRGTITCRASQSIRSYLNWYQQKPGKAPKLLIYAASSLQSGVPSRFSGSGSGTDFTLTISSLQPEDFATYYCQQSYRTPVTFGPGTKVDIKR
no binding (tested: 550 nM)	no binding (tested: 380 nM)		ATX-P-597 (antibody, human IgG1, kappa, N297A, V domains shown) VH: QVQLVQSGAEVKKPGASVKVSCKASGYTFTNYYMQWVRQAPGQGLEWLGIIDPSGGSTTYAQKFQGRVTMTRDTSTSTVHMELRSLRSEDTAVYYCARDEGTDRPGWGYWGQGTLVTVSS VL: DIQMTQSPSSLSASIGDRVTITCRASQSISSYLDWYQRKSGKAPKLLIYAASSLQSGVPSRFSGSGSGTDFTLTISSLQPEDFATYYCQQSYSTPLTFGGGTKVDIKR
no binding (tested: 550 nM)	no binding (tested: 380 nM)		ATX-P-560 (antibody, human IgG1, kappa, N297A, V domains shown) VH: QVQLQQSGPGLVKPSQTLSLTCAISGDSVSSNTAAWNWIRQSPSRGLEWLGRTYYRSKWYNDYAVSVKSRITINPDTSKNQFSLQLSSVTPQDTAIYYCASDNWNNGGPGFDPWGQGTLVTVSS VL: DIQMTQSPSSVSTSVGDRVTITCRASQGISSWLAWYQQKPGKAPKLLISAASSLQSGVPSRFSGSGSGTDFTLTISTLQPEDFASYYCQQANSFPPTFGQGTRVEIKR

The next lines start with the binder.

Binder	binding result [1]	binding result [2]	binding result [3]
ATX-P-601 (antibody, human IgG1, kappa, N297A, V domains shown) VH: QVQLVQSGAEVKKPGASVKVSCKASGYTFTSYYMHWVRQAPGQGLEWMGIINPSGGSTNYAQKFQGRLTMTRDTSTNTVYMELSSLRSEDTAVYYCATDQSGGMDVWGKGTTVTVSS VL: DIQMTQSPSSLSASVGDRVTITCRASQSINIYLNWYQQKPEKDPKLLIYAASSLQSGVPSRFSGSGSGTDFTLTISNLQPEDFATYYCQQSYSTPITFGQGTRLEIKR	no binding (tested: 550 nM)	no binding (tested: 380 nM)	
ATX-P-602 (antibody, human IgG1, kappa, N297A, V domains shown) VH: not shown VL: EIVLTQSPGTLSLSPGERATLSCRASQSVSSSYLAWYQQKPGQAPRLLIYGASSRATGIPDRFSGSGSGTQFTLTISSLQSEDFAVYYCQQYGSSPWTFGQGTKVDIKR	no binding (tested: 550 nM)	no binding (tested: 380 nM)	
ATX-P-598 (antibody, human IgG1, kappa, N297A, V domains shown) VH: QVQLQESGPGLVKPSGTLSLTCAVSGGSISSSNWWSWVRQSPGKGLEWIGEIYHSGTTNYNPSLKSRVTISVDKSKNQFSLKLSSATAADTAVYYCARDRLRLGESSSDVFDIWGQGTMVTVSS VL: not shown	no binding (tested: 550 nM)	no binding (tested: 380 nM)	
